Data reported in patent US6156551.
Where no end group is shown, it is not given here. [ ]: non-standard residue; d: D form. pY = N[C@@H](Cc1ccc(OP(=O)(O)O)cc1)C(=O)O

Key:
[1] = target: [^32 P]reduced carboxyamidomethylated and maleylated-lysozyme (Gallus gallus (Chicken)) (UniProt P00698)
[2] = target: reduced carboxyamidomethylated and maleylated-lysozyme (not phosphorylated) (Gallus gallus (Chicken)) (UniProt P00698)
[3] = target: T1, D61A activated mutant of SHP-2 (human)
T1 sequence: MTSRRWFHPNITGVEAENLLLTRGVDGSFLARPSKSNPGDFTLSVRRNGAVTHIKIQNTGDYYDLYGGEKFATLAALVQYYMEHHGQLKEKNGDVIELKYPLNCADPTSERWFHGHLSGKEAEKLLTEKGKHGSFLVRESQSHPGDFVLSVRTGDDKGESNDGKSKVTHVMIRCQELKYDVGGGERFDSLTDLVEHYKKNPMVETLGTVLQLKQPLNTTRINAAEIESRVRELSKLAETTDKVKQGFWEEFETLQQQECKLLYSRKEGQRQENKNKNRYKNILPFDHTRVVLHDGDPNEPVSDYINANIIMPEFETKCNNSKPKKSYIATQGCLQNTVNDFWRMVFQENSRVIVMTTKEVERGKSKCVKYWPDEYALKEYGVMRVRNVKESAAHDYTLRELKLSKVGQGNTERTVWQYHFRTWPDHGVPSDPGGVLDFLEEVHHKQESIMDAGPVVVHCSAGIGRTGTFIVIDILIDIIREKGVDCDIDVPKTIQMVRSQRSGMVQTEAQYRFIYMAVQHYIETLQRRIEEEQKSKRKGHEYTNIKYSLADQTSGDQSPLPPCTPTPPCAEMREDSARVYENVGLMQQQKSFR

E76A activated mutant of SHP-2 (enzyme)
phosphatase activity ([32P] phosphate released from [^32 P]RCM-lysozyme) (pmol/min-pmol) [1]: 100

recombinant full length Src kinase (enzyme)
phosphorylation of RCM-lysozyme with [γ-^32 P] ATP [2]: 2000 cpm/pmol

B1: SHPS-1 phosphotyrosine peptide DIT[pY]…[pY]ASIQTS-NH2 (peptide)
peptide: DIT[pY]ADLNLPKGKKPAPQAAEPNNHTE[pY]ASIQTS-NH2
modifications: N-terminus assumed
SMILES: CC[C@H](C)[C@H](NC(=O)[C@H](CO)NC(=O)[C@H](C)NC(=O)[C@H](Cc1ccc(OP(=O)(O)O)cc1)NC(=O)[C@H](CCC(=O)O)NC(=O)[C@@H](NC(=O)[C@H](Cc1c[nH]cn1)NC(=O)[C@H](CC(N)=O)NC(=O)[C@H](CC(N)=O)NC(=O)[C@@H]1CCCN1C(=O)[C@H](CCC(=O)O)NC(=O)[C@H](C)NC(=O)[C@H](C)NC(=O)[C@H](CCC(N)=O)NC(=O)[C@@H]1CCCN1C(=O)[C@H](C)NC(=O)[C@@H]1CCCN1C(=O)[C@H](CCCCN)NC(=O)[C@H](CCCCN)NC(=O)CNC(=O)[C@H](CCCCN)NC(=O)[C@@H]1CCCN1C(=O)[C@H](CC(C)C)NC(=O)[C@H](CC(N)=O)NC(=O)[C@H](CC(C)C)NC(=O)[C@H](CC(=O)O)NC(=O)[C@H](C)NC(=O)[C@H](Cc1ccc(OP(=O)(O)O)cc1)NC(=O)[C@@H](NC(=O)[C@@H](NC(=O)[C@@H](N)CC(=O)O)[C@@H](C)CC)[C@@H](C)O)[C@@H](C)O)C(=O)N[C@@H](CCC(N)=O)C(=O)N[C@H](C(=O)N[C@@H](CO)C(N)=O)[C@@H](C)O
activation of phosphatase activity on [^32 P]RCM-lysozyme by the phosphotyrosine peptide (fold higher than wildtype SHP-2) [3]: 5
